# Reference: US20200216495A1 (ADRX, published 2020)
# Several values for one entry are separate records, joined by “and”; a condition that tells them apart may be missing. Identical values can stand only once. Square brackets hold non-standard residues; d marks the D form. Ends that are not written are not given here.
# Target: Tau40 P301L protein (human)
# Test: cell-based or functional assay
row,Binder,"IC50, Tau40 assay (ThT)"
1,[dF][dR][dI][dK][dL][dK][dW][dH] [friklkwh],3.88 µM and 3.9 µM
2,[dW][dR][dL][dR][dI][dW][dW][dW] [wrlriwww],3.76 µM and 5.41 µM
3,[dF][dK][dL][dW][dL][dR][dW][dF] [fklwlrwf],4.19 µM and 7.03 µM
4,[dF][dR][dL][dR][dI][dH][dW][dF] [frlrihwf],3.77 µM and 7.09 µM
5,[dW][dK][dL][dK][dL][dR][dW][dW] [wklklrww],4.13 µM
6,[dW][dH][dV][dR][dI][dR][dH][dV] [whvrirhv],5.03 µM
7,[dR][dL][dK][dV][dR][dW] [rlkvrw],3.38 µM and 3.59 µM and 3.81 µM and 4.79 µM
8,[dK][dI][dR][dI][dH][dY][dH] [kirihyh],4.92 µM
9,[dL][dE][dI][dR][dI][dH][dY][dH] [leirihyh],4.07 µM
10,[dL][dK][dI][dR][dI][dE][dH][dY] [lkiriehy],4.53 µM
11,[dF][dR][dL][dW][dI][dH][dW][dF] [frlwihwf],4.39 µM and 6.88 µM
12,[dL][dH][dI][dK][dL][dK][dH][dF] [lhiklkhf],4.44 µM and 4.64 µM
13,[dW][dK][dL][dK][dL][dR][dW] [wklklrw],3.56 µM and 7.39 µM
14,[dW][dW][dL][dR][dI][dH][dW][dW] [wwlrihww],4.09 µM and 5.61 µM
15,[dF][dE][dI][dR][dL][dH][dH][dW] [feirlhhw],4.2 µM
16,[dW][dN][dL][dK][dV][dN][dW] [wnlkvnw],4.86 µM
17,[dK][dV][dR][dW][dW][dW][dR][dL] [kvrwwwrl],3.84 µM
18,[dH][dK][dI][dR][dI][dH][dY][dH] [hkirihyh],3.84 µM
19,[dH][dR][dF][dK][dV][dQ][dL][dY] [hrfkvqly],4.03 µM
20,[dK][dW][dR][dW][dY][dR][dR] [kwrwyrr],3.55 µM
21,[dL][dK][dI][dE][dI][dH][dY][dH] [lkieihyh],3.64 µM

row,Binder,"IC50, Tau40 assay (ThT)"
1,[dK][dI][dR][dI][dH][dY][dH][dL] [kirihyhl],4.59 µM
2,[dF][dE][dI][dR][dL][dW][dH][dH] [feirlwhh],3.38 µM
3,[dL][dK][dI][dR][dI][dH] [lkirih],4.95 µM
4,[dY][dH][dV][dK][dF][dR][dH][dW] [yhvkfrhw],4.71 µM
5,[dR][dL][dR][dV][dR][dW] [rlrvrw],3.71 µM and 4.76 µM
6,[dF][dH][dL][dH][dL][dK][dH][dW] [fhlhlkhw],3.74 µM
7,[dR][dW][dK][dV][dR][dW] [rwkvrw],3.7 µM
8,[dR][dL][dR][dL][dK][dW] [rlrlkw],3.43 µM
9,[dR][dI][dH][dY][dH][dI][dK][dL] [rihyhikl],3.59 µM
10,[dW][dL][dK][dI][dV][dW] [wlkivw],3.62 µM
11,[dL][dA][dI][dR][dI][dH][dY] [lairihy],3.98 µM
12,[dW][dW][dL][dK][dL][dR][dW] [wwlklrw],3.54 µM
13,[dW][dK][dV][dQ][dV][dR][dY][dW] [wkvqvryw],3.54 µM
14,[dL][dK][dI][dF][dI][dH][dY][dH] [lkifihyh],4.57 µM
15,[dF][dK][dL][dE][dI][dR][dY][dH] [fkleiryh],3.38 µM
16,[dA][dK][dI][dR][dI][dH][dY][dH] [akirihyh],3.54 µM
17,[dF][dE][dL][dK][dL][dR][dW][dH] [felklrwh],4.94 µM and 5.3 µM
18,[dK][dL][dK][dW][dL][dW] [klkwlw],4.41 µM
19,[dL][dD][dL][dR][dF][dK][dL][dY] [ldlrfkly],3.43 µM
20,[dY][dR][dL][dK][dV][dR][dW] [yrlkvrw],4.69 µM
